From patent US8258256 (Johns Hopkins, dated 2012)
Ends that are not written are not given here. * marks the point of attachment. Biotin = O=C1N[C@H]2[C@H](CS[C@H]2CCCCC(=O)*)N1

target: T1, His-PSMA (recombinant extracellular domain of prostate specific membrane antigen with amino-terminal His-6 … (UniProt Q04609 44-750, limits assumed)); test: cell-based or functional assay
T1 sequence (Q04609 other isoform, or with tags, fused parts or gaps limits assumed): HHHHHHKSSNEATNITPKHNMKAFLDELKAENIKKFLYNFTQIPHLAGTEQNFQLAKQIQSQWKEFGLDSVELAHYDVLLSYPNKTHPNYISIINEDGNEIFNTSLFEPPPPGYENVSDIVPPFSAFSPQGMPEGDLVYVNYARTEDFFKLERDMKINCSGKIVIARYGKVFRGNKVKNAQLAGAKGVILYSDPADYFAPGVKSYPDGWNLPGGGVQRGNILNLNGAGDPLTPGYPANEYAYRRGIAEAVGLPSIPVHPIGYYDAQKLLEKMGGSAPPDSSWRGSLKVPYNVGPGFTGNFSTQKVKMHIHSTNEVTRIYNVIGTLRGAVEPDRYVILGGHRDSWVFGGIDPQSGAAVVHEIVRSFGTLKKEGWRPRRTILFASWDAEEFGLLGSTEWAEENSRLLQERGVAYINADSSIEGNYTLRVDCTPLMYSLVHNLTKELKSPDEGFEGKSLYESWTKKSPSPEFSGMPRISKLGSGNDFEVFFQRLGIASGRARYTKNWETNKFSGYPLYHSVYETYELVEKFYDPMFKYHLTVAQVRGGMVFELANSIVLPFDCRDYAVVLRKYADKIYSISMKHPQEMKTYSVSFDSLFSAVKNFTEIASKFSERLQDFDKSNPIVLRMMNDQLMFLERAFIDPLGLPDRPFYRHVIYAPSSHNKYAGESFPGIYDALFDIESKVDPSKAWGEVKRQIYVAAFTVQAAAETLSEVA

Binder	inhibition of NAAG hydrolysis (NAALADase activity of PSMA), IC50	fold better inhibition of PSMA than the monomer
WQPDTAHHWATL [monomeric WQPDTAHHWATL (SEQ ID NO:1) peptide (as used in the NAALADase assay)]	23 µM	–
dimeric WQPDTAHHWATL (SEQ ID NO:1) peptide (as used in the NAALADase assay) (not fully specified (C-terminus); printed as (WQPDTAHHWATL)2-K; also: two copies of chain 1, C-termini joined to alpha and epsilon amines of branching Lys, C-terminal label on Lys not given here) peptide: WQPDTAHHWATL Lys	2.2 µM	~10 fold

target: T1, His-PSMA (recombinant extracellular …); test: ELISA, biotinylated peptide on immobilized PSMA or BSA
From the text: (§1) Recombinant PSMA (0.625 µgs) and BSA (25 µgs/ml) were immobilized and indicated concentrations of the biotinylated […] […] Results are the mean binding in 4 replicate wells each ±S.D.

Binder	binding result
QMARIPKRLARHK(Biotin) (also called control consisting of a positively charged 12 amino acid peptide) [non-selected control peptide QMARIPKRLARHK-biotin]	no binding

target: T1, His-PSMA (recombinant extracellular …); test: ELISA, biotinylated peptide on immobilized PSMA against immobilized BSA
From the text: as §1

Binder	binding result
WQPDTAHHWATLK(Biotin)-OH (N-terminus assumed; SMILES CC(C)C[C@H](NC(=O)[C@@H](NC(=O)[C@H](C)NC(=O)[C@H](Cc1c[nH]c2ccccc12)NC(=O)[C@H](Cc1c[nH]cn1)NC(=O)[C@H](Cc1c[nH]cn1)NC(=O)[C@H](C)NC(=O)[C@@H](NC(=O)[C@H](CC(=O)O)NC(=O)[C@@H]1CCCN1C(=O)[C@H](CCC(N)=O)NC(=O)[C@@H](N)Cc1c[nH]c2ccccc12)[C@@H](C)O)[C@@H](C)O)C(=O)N[C@@H](CCCCNC(=O)CCCC[C@@H]1SC[C@@H]2NC(=O)N[C@@H]21)C(=O)O, Synthetic, Fmoc chemistry; also called biotinylated monomeric peptide) [WQPDTAHHWATLK (Biotin) monomeric peptide]	binds

target: T1, His-PSMA (recombinant extracellular …); test: phage ELISA on immobilized His-PSMA against immobilized BSA, phage at 10^10 pfu/ml, anti-M13-HRP

Binder	fold higher binding to PSMA compared to BSA
WQPDTAHHWATL (not fully specified, Whole M13 phage particle displaying the 12-mer; tested as phage, in pfu/ml; not shown: M13 phage coat protein III) [WQPDTAHHWATL (SEQ ID NO:1) phage]	~10 fold

target: T1, His-PSMA (recombinant extracellular …); test: phage display selection in solution on His-PSMA, three rounds, capture with anti-His magnetic beads
Description: Phage Library Screening—Peptides from the random M13 12-mer phage library were selected using His-tagged PSMA as the target, which was then captured using magnetically labeled Anti-His Tag Antibody. To remove non-specific phage binding to Anti-His antibody and other components of the magnetic separation system, the library was depleted 2 times with the His-MACS system. First Round of Screening: The final eluate from negative screening was incubated with 0.8 μgs of PSMA for 30 mins at room temperature. 50 uls of His-MACS were added and allowed to bind for 30 mins at room temperature. The incubation mixture was loaded onto a MACS column and washed twice with 1 ml of PBS/0.1% Tween 20 (PBST). Beads containing PSMA bound to phage were collected and amplified using PhD Kit protocol (NEB, Auburn, Mass.). Second Round Screening: Negative screening was repeated as above except with more BSA (0.5%) and longer incubation (1 hr at 4° C.). 10^10 pfu from the first round of screen were then incubated with PSMA in 1% BSA for 6 hrs at 4° C. His-MACS in 3% BSA were incubated for 30 mins and bound phages were collected and amplified as in round one. For third round screening the same method was used except Mouse IgG solution (100 μgs/ml) was added to the blocking solution. Individual phage were selected and sequenced after third round of screening.
To decrease the selection of non-specific low affinity binders, phage screening was performed in solution and incorporated negative screening steps using other selection components (i.e. antibodies, magnetic beads, etc.) to remove many background binders (22). Thus, for this study the phage library was incubated with magnetically labeled Anti-His_6 (SEQ ID NO: 25) antibody […]. After negative selection steps, His-PSMA was incubated with the phage library and phages bound to His-PSMA were captured using magnetically labeled Anti-His_6 (SEQ ID NO: 25) antibody, FIG. 1.

Binder	binding result
YRHWPIDYPPPP (not fully specified; also: displayed on M13 phage pIII, Selected in three rounds on His-PSMA; not tested singly; not shown: M13 phage coat protein III) [selected phage with insert SEQ ID NO 34]	binds
GHLIPLRQPSHQ (not fully specified, Selected in three rounds on His-PSMA; not tested singly; not shown: M13 phage coat protein III) [selected phage with insert SEQ ID NO 29]	binds
WTHHHSYPRPLQ (not fully specified, Selected in three rounds on His-PSMA; not tested singly; not shown: M13 phage coat protein III) [selected phage with insert SEQ ID NO 30]	binds
NSFPLMLMHHHP (not fully specified; also: displayed on M13 phage pIII, Selected in three rounds on His-PSMA; not tested singly; not shown: M13 phage coat protein III) [selected phage with insert SEQ ID NO 6]	binds
MIHTNHWWAQDR (not fully specified; also: displayed on M13 phage pIII, Selected in three rounds on His-PSMA; not tested singly; not shown: M13 phage coat protein III) [selected phage with insert SEQ ID NO 35]	binds
SEFIHHWTPPPS (not fully specified; also: displayed on M13 phage pIII, Selected in three rounds on His-PSMA; not tested singly; not shown: M13 phage coat protein III) [selected phage with insert SEQ ID NO 9]	binds
AGFQHHPSFYRF (not fully specified, Selected in three rounds on His-PSMA; not tested singly; not shown: M13 phage coat protein III) [selected phage with insert SEQ ID NO 13]	binds
TPLPSFTDGHHT (not fully specified; also: displayed on M13 phage pIII, Selected in three rounds on His-PSMA; not tested singly; not shown: M13 phage coat protein III) [selected phage with insert SEQ ID NO 36]	binds
QRSPMMSRIRLP (not fully specified, Selected in three rounds on His-PSMA; not tested singly; not shown: M13 phage coat protein III) [selected phage with insert SEQ ID NO 17]	binds
YTSPHHSTTGHL (not fully specified; also: displayed on M13 phage pIII, Selected in three rounds on His-PSMA; not tested singly; not shown: M13 phage coat protein III) [selected phage with insert SEQ ID NO 4]	binds
NGFSHHAPLMRY (not fully specified, Selected in three rounds on His-PSMA; not tested singly; not shown: M13 phage coat protein III) [selected phage with insert SEQ ID NO 10]	binds
HHEWTHHWPPPP (not fully specified; also: displayed on M13 phage pIII, Selected in three rounds on His-PSMA; not tested singly; not shown: M13 phage coat protein III) [selected phage with insert SEQ ID NO 32]	binds
HNAYWHWPPSMT (not fully specified, Selected in three rounds on His-PSMA; not tested singly; not shown: M13 phage coat protein III) [selected phage with insert HNAYWHWPPSMT (SEQ ID NO 2)]	binds
SLDSMSPQWHAD (not fully specified; also: displayed on M13 phage pIII, Selected in three rounds on His-PSMA; not tested singly; not shown: M13 phage coat protein III) [selected phage with insert SEQ ID NO 8]	binds
AWPENPSRRPFT (not fully specified; also: displayed on M13 phage pIII, Selected in three rounds on His-PSMA; not tested singly; not shown: M13 phage coat protein III) [selected phage with insert SEQ ID NO 33]	binds
KSLSRHDHIHHH (not fully specified, Selected in three rounds on His-PSMA; not tested singly; not shown: M13 phage coat protein III) [selected phage with insert SEQ ID NO 14]	binds
KHMHWHPPALNT (not fully specified, Selected in three rounds on His-PSMA; not tested singly; not shown: M13 phage coat protein III) [selected phage with insert SEQ ID NO 31]	binds
